Data on four molecules can be found in patent US20150266960A1 (University of Texas, published 2015).

B1: Wild type IgA Fc domain (other)
chain: VPCPVPSTPPTPSPSTPPTPSPSCCHPRLSLHRPALEDLLLGSEANLTCTLTGLRDASGVTFTWTPSSGKSAVQGPPERDLCGCYSVSSVLPGCAEPWNHGKTFTCTAAYPESKTPLTATLSKSGNTFRPEVHLLPPPSEELALNELVTLTCLARGFSPKDVLVRWLQGSQELPREKYLTWASRQEPSQGTTTFAVTSILRVAAEDWKKGDTFSCMVGHEALPLAFTQKTIDR
notes: Template for the alanine scan; also called wild-type glycosylated IgA; IgA CH2 CH3

Test [1] concerns the target T1, FcαRI-GST (UniProt P24071 22-227, limits assumed).
T1 construct: extracellular domain; Made in HEK293F cells from pMaz-IgH-FcαRI-GST (dimeric expression) and purified on glutathione Sepharose; also called soluble dimeric FcαRI-GST; CD89; not shown: GST tag
The test is described as follows: SPR, antibody amine coupled, dimeric FcαRI-GST flowed, 2:1 bivalent analyte fit. (In general: Surface plasmon resonance follows binding to a sensor surface in real time, without labels.)

Test [2] concerns the target T2, FcγRI-GST (UniProt P12314 16-292, limits assumed).
T2 construct: not shown: GST tag
The test is described as follows: ELISA: Fc domain coated at 4 µg/mL, FcγRI-GST in 1:4 serial dilution, anti-GST HRP, A450. The procedure:
(§1) ELISA plates (Qiagen) were coated with 4 μg/mL of each of the mutant Fc domains in 1×PBS (pH 7.4) overnight at 4° C. The next day the plates were blocked for 2 hours at room temperature with 2% milk in 1×PBS containing 0.05% Tween (PBST) and washed three times in PBST at pH 7.4. To the first well, 66 μL of 20 μg/mL of either FcγRI-GST, FcγRI-GST, FcγRIIa-R131-GST, FcγRIIb-GST, or FcγRIIIa-F158-GST dissolved in PBS with 2% milk (PBSM) was added followed by 1:4 serial dilution. After 1 h of incubation at room temperature, the plates were washed and 50 μL PBSM was added containing 1:5000 goat anti-GST HRP (GE Healthcare) for 1 hour. To develop the plates, the wells were washed 3× with PBST, 50 μL TMB substrate was added per well (Thermo Scientific), 50 μL of 1 M H₂SO₄ was added to neutralize, and the absorbance at 450 nm was recorded.
In general terms: In an ELISA, binding on a coated surface is turned into a signal by an enzyme label.

In test [3] the target is B1. The test is described as follows: ELISA: Fc domain coated at 4 µg/mL, FcγRIIa-R131-GST in 1:4 serial dilution, anti-GST HRP, A450. How it is done:
as §1

For test [4], the target named is T1, FcαRI-GST. Description: ELISA: Fc domain coated at 4 µg/mL, FcαRI-GST in 1:4 serial dilution, anti-GST HRP, A450. How it is done: as §1

T1 sequence (P24071 22-227 limits assumed): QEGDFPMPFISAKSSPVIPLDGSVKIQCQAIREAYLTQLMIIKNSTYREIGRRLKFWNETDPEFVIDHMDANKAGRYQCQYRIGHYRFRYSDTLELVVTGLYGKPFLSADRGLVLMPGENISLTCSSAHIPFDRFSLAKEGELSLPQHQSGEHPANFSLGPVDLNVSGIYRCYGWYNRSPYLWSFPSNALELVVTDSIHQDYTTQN
T2 sequence (P12314 16-292 limits assumed): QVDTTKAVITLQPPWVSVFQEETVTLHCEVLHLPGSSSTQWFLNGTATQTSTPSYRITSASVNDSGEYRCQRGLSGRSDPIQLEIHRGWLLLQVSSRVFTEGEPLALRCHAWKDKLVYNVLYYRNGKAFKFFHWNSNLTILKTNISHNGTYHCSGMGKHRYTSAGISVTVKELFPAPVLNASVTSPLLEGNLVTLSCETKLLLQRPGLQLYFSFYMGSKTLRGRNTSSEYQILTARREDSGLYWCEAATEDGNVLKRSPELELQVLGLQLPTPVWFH

The molecule trastuzumab IgA (antibody) yielded a Kd in test [1] of 500 nM. On to B1, for which the binding result in test [2] was “no binding”.

B2: FcγRIIa-R131-GST (receptor, UniProt P12318 34-217, looked up)
chain: QAAAPPKAVLKLEPPWINVLQEDSVTLTCQGARSPESDSIQWFHNGNLIPTHTQPSYRFKANNNDSGEYTCQTGQTSLSDPVHLTVLSEWLVLQTPHLEFQEGETIMLRCHSWKDKPLVKVTFFQNGKSQKFSRLDPTFSIPQANHSHSGDYHCTGNIGYTLFSSKPVTITVQVPSMGSSSPMG
notes: R131 is an allele name counted on the mature protein; not shown: GST tag
As for B2, the binding result in test [3] is on record as “no binding”.

B3: Mutant B (other)
Fc chain (hinge-CH2-CH3): DKTHTCPPCPAPELLGGPSVFLFPPKPKDTLMISRTPEVTCVVVDVSHEDPEVKFNWYVDGVEVHNAKTKPREEQYNSTYRVVSVLTVLHQDWLNGKEYKCKVSNKALPAPIEKTISKAKSGNTFRPEVHLLPPPSEELALNELVTLTCLARGFSPKDVLVRWLQGSQELPREKYLTWASRQEPSQGTTTFAVTSILRVAAEDWKKGDTFSCMVGHEALPLAFTQKTIDR
notes: Purified over Ni-NTA (His tag); also called Mutant B Fc domain; MutB
Take B3: in test [4], the binding result is on record as “no binding”.
